Tests used:
4T1 cells = assay: Trans-well migration and invasion assay; type: cell-based, mouse; settings: 1 U/mL, 20 h
Procedure: (§1) Breast cancer cell lines (human MDA-MB-231 cells and mouse 4T1 cells) were used in these studies. Both migration assay and invasion assay were performed in 24 wells Costar (Corning) Trans-well system (polycarbonate membrane inserts, pore size 8.0 μm). Before the assay, the cells were cultivated in appropriate serum free medium for at least 24 h. One day before seeding cells to the upper chambers, 100 μL diluted matrigel was added to the upper chambers of the inserts for invasion assay. Serum free medium (100 μL) was added to the upper chamber used for migration assay. The 24 well plates were incubated in the incubator for overnight. The next day, cells were trypsinized and counted. In the studies, 3×10^4 cells of 4T1 or 5×10^4 cells of MDA-MB-231, with 200 μL appropriate serum free medium, were seeded into the upper chambers. Appropriate complete medium (750 μL) was added to the lower chambers. For the drug treatment group, 1 U/mL His-rhArg (SEQ ID NO: 101) was added to both chambers. The 24 well plates were incubated at 37° C. humidified atmosphere with 5% CO2 for 20 h (4T1 cells) or 24 h (MDA-MB-231 cells).
(§2) After incubation, the medium in the upper chambers was removed. The trans-well inserts were washed with 1×PBS twice. Cold 100% methanol was added to both upper chambers and lower chambers for 10 min to fix the cells. The inserts were washed with 1×PBS for two times. […]

MDA-MB-231 cells = assay: Trans-well migration and invasion assay; type: cell-based, human; settings: 1 U/mL, 24 h
Procedure: as §1, §2

MCF-7 cancer cells = assay: cells; type: cell-based, human; settings: MCF-7, single agent
Procedure: (§3) Breast cancer cell lines (e.g. human MCF-7 and MDA-MB-231 cells) were used in these studies. Cancer cells (5×10^3 cells) were seeded in 96-well plates (TPP) with […] complete medium. The plates were incubated in incubator overnight and the cells were allowed to adhere to the plates. […] Each dosage was triplicated in 3 wells to obtain the average change of cell viability. […] The plates were put back into the incubator and further incubated for 4 h. To dissolve the insoluble compound, formazan, formed by MTT, 100 μl of 10% SDS in 0.01 M HCl was added. The plates were incubated at 37° C. overnight. The color change was measured by spectrophotometer at 570 nm. Control set up (without any drug) was used as base to calculate percentage of cell viability which was used to plot the dose response curve by the software Prism 6.0 (GraphPad) to find the IC50 values. […] CalcuSyn software (Biosoft) was used for calculating the CI values.

[1] = system: MDA-MB-231 breast cancer cells; assay: cells; type: cell-based, human; settings: MDA-MB-231, single agent
Procedure: as §3

IC50 (MCF-7 cancer cells): 0.7869 U/mL
IC50 [1]: 0.9522 U/mL
B1: His-rhArg: recombinant human arginase with His tag, SEQ ID NO: 101 (protein)
chain: MHHHHHHMSAKSRTIGIIGAPFSKGQPRGGVEEGPTVLRKAGLLEKLKEQECDVKDYGDLPFADIPNDSPFQIVKNPRSVGKASEQLAGKVAEVKKNGRISLVLGGDHSLAIGSISGHARVHPDLGVIWVDAHTDINTPLTTTSGNLHGQPVSFLLKELKGKIPDVPGFSWVTPCISAKDIVYIGLRDVDPGEHYILKTLGIKYFSMTEVDRLGIGKVMEETLSYLLGRKKRPIHLSFDVDGLDPSFTPATGTPVVGGLTYREGLYITEEIYKTGLLSGLDIMEVNPSLGKTPEEVTRTVNTAVAITLACFGLAREGNHKPIDYLNPPK
modifications: His tag; His-rhArg, Synthesized in Lab
number of cancer cells that can migrate and invade via the transwell inserts (4T1 cells): decreased
number of cancer cells that can migrate and invade via the transwell inserts (MDA-MB-231 cells): decreased
